Laboratory results: the supplement of paper PMC10126150
± gives the standard deviation of the averaged measurements.

system: ATP; assay: switch fluorescence ratio, 500 uM ATP over buffer (Cy3 cluster intensity, sum of 5 cycles each) (fold (ratio)); higher = stronger signal-on switching upon ATP binding; sequences stand for … in TCGTCGGCAGCGTCAGATGTGTATAAGAGACAGTTTTTTTTTTTTTTTTTTTTTTTTT…TC; conditions: aptamer strand: ATP DNA aptamer (quencher-CACCTGGGGGAGTATTGCGGAGGAAGG + anchor), 100 nM annealed; ATP concentration: 500 uM
Procedure, shortened: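 Exposure to 500 uM ATP lasted 15 min at 22 °C before imaging, and a selection-buffer image was taken beforehand, for Cy3-labelled switching-strand clusters on a modified Illumina MiSeq flow-cell annealed to 100 nM quencher-labelled ATP aptamer. Five buffer/ATP cycles were run with NaOH stripping and re-annealing between them. The fluorescence ratio per cluster is summed target-cycle over summed buffer-cycle Cy3 intensity, averaged per switch-domain sequence. Clusters outside 100-1000 RFU were excluded.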

Sequence	switch fluorescence ratio
TTTATCGAGC	1.02 ± 0.027
AGGCGAGTTA	0.9937 ± 0.0054
TAAAGGTATC	0.9977 ± 0.0048
TGAGTGGGGA	1 ± 0.013
ATTACAATAG	1.095 ± 0.0077
AGGTGGTGTG	0.984 ± 0.015
TGCGATACGG	2.71 ± 0.12
TTGGGCAACG	1.06 ± 0.022
GGGACCGGTT	0.99 ± 0.03
TTTGTGTAGT	0.986 ± 0.065
GCGATAATTT	0.9975 ± 0.0076
ACCGGGCTGC	1.06 ± 0.024
ACATGTTGCC	1.02 ± 0.0074
ATAATTAATT	0.958 ± 0.03
TAATTTGCGT	1 ± 0.019
CATATATCAT	1.008 ± 0.0095
TAGGCAGAGT	1.01 ± 0.023
ACAAATTGCG	0.991 ± 0.027
TCTTAGGGGA	0.998 ± 0.017
ACCTGTTGTT	0.991 ± 0.016
CGCTTGTGTT	0.9821 ± 0.0015
GGTGTGGTGA	1.06 ± 0.049
GCGGCAGGGA	0.997 ± 0.049
TCGGGGCCGA	0.969 ± 0.01
GGGTGTTAGT	1 ± 0.016

Sequence	switch fluorescence ratio
AGATATGGTG	1.01 ± 0.089
CAGCCTGCGG	1.01 ± 0.029
ATTAATAGCA	0.9745 ± 0.0089
GTTTTGGGCC	1.02 ± 0.05
CAGACGTCGA	1.05 ± 0.066
TCACGTTCAA	1.06 ± 0.022
TCGGAACTCG	0.9824 ± 0.0063
GGATTAGTCA	0.9973 ± 0.0047
ATTGACTGAT	1.03 ± 0.044
TTAAGGGAAC	0.9966 ± 0.0052
TAGGGGAATG	1.02 ± 0.098
GAGATCGTGC	0.96 ± 0.018
GATCATCGGG	0.995 ± 0.015
ATAGGGTTTC	0.99 ± 0.01
GTTTTTAGCA	0.9719 ± 0.005
ATTGAGTAA	0.976 ± 0.025
TTAGGCCGGC	0.988 ± 0.11
GATTTTCGAG	0.994 ± 0.031
TGGTGGTTCG	0.975 ± 0.061
GGGAAGGTAT	0.992 ± 0.017
CGTTGTCATT	0.972 ± 0.036
AGGGAAATGA	0.987 ± 0.024
AGTTTTTAAT	0.999 ± 0.018
TTTAGTTTTC	0.991 ± 0.019
GATACTGTTG	0.988 ± 0.027

Sequence	switch fluorescence ratio
GGGTGCATGC	1.07 ± 0.084
ATGGAGGCG	1.03 ± 0.013
AGAGGATGAT	0.962 ± 0.013
CATTTTTGGA	1.003 ± 0.0076
TAGGTGGACT	1.01 ± 0.042
TCGAATGGCC	0.994 ± 0.024
GGGGTGGCTG	0.955 ± 0.023
TTTTTAGTTC	0.98 ± 0.027
GGGAGGGGCT	1.02 ± 0.068
TTTTACGTAG	1.09 ± 0.035
TTAAGGGTTG	1.02 ± 0.019
GTGTGCTAGT	0.975 ± 0.02
TAGTTGACAA	0.99 ± 0.0024
ACAGCGTGGG	1.041 ± 0.0097
GTGTTTCCGG	1.01 ± 0.045
TCAAGCCATT	0.989 ± 0.022
AAGTCTGGGC	1.01 ± 0.036
AGGGAATTGT	1 ± 0.037
TTTTAAGTGA	1.02 ± 0.05
CTCAGCGGGT	1.49 ± 0.68
ATCTGGCTCG	0.988 ± 0.016
GGGTTATTTT	0.999 ± 0.043
CAATCAATCG	1.05 ± 0.017
GGTCTTGTTG	1.02 ± 0.036
AAATTATTT	1.02 ± 0.051

Sequence	switch fluorescence ratio
TAAGGCACGC	1.01 ± 0.027
AATGAAAGAT	0.998 ± 0.039
ATCGTTGCGG	1.1 ± 0.099
TAAAATGGAC	1.03 ± 0.028
TTACGGTTTT	1.01 ± 0.023
AAGTCGCGGA	0.999 ± 0.033
ATTGAGTAGC	1.01 ± 0.032
GGGGAAGTAG	0.994 ± 0.018
TAATGGTT	0.979 ± 0.011
TCTGGAGAGG	1.01 ± 0.034
GGGGGTGCTC	1.01 ± 0.023
CGATAACTGG	1.05 ± 0.052
ATAAGTTGAT	1.01 ± 0.03
GGTTGCTTGA	0.9848 ± 0.002
CATTAACGAG	1.013 ± 0.0062
CGTTTTGATT	0.997 ± 0.013
GCTCCTCACA	1.67 ± 0.2
TTTTGGGGTC	1.02 ± 0.023
TCCCTTTCGA	1.21 ± 0.063
ATGGGATGCG	0.981 ± 0.016
GAGAGCTCAC	1.01 ± 0.021
GAGGATTTCA	0.99698 ± 0.00049
TAGTTGACCC	1.01 ± 0.053
TTGGGGTCGG	0.999 ± 0.037
ACGGGTGGCG	0.95 ± 0.11

Sequence	switch fluorescence ratio
GGGATGGGAA	1.02 ± 0.022
GGCACTGGAT	1.02 ± 0.02
ACTTTTAGTT	1.05 ± 0.018
GGCGTCAAGG	0.996 ± 0.026
TCTCACGGGG	1.29 ± 0.33
AGGGAGCGCG	0.995 ± 0.011
AAACTAAGAA	1 ± 0.016
TCCGGGGCAA	3.73 ± 2
TCATAAAGGG	1.03 ± 0.0064
CGGGGGGCCA	1.016 ± 0.0048
GCCAAAGGTG	1.72 ± 0.12
AATTTGTCCA	0.98 ± 0.015
CAATTCGCGA	1.2 ± 0.034
ATTGTGTCTT	0.99 ± 0.013
GCAGACGGTG	1.05 ± 0.013
GCGGGAGGTC	1.03 ± 0.013
AAGGGCATTG	0.998 ± 0.015
ATGAGGGGCA	0.98 ± 0.026
CATACTCAGA	1 ± 0.045
GCATATTTGA	0.981 ± 0.015
AATAAAATGG	0.998 ± 0.028
ATGTAATAGC	0.989 ± 0.022
TGCAAGTGAA	0.997 ± 0.053
GGTTGGCAGA	0.99 ± 0.059
TAAGGCTGTG	1 ± 0.017

Sequence	switch fluorescence ratio
TTTGTTAAGG	1.01 ± 0.019
AAGGGATCGG	0.994 ± 0.024
TTAGGTGCAA	1.17 ± 0.11
TTTTTTTATA	0.991 ± 0.024
GGCAATTTTT	0.992 ± 0.049
AAAAGTCAGT	0.988 ± 0.053
AGTACGGATA	1.03 ± 0.074
TGCTAGTTCT	0.99 ± 0.016
AGAGAGCGAA	1.01 ± 0.022
CGGGTGAAGG	1.06 ± 0.049
GGGGGGTCGA	1 ± 0.021
AGCGGTCGGC	1.04 ± 0.018
TTGGACGGAA	1.224 ± 0.0051
TGACCTGGCT	1.04 ± 0.035
TCACAGTTAG	0.998 ± 0.046
GGCTTAAGCA	0.988 ± 0.025
GTGGTTTTTT	0.996 ± 0.022
CGAAGGCGTA	1.027 ± 0.0062
ACGTAATTTT	1.17 ± 0.03
TAGGATTGCT	1 ± 0.021
GGGTAGGGGA	1 ± 0.049
TTAAAGTGCC	1.01 ± 0.0072
ATATTGATTC	1.01 ± 0.027
ACCACGAATG	1.025 ± 0.0051
GATTTTCGAA	1 ± 0.041

Sequence	switch fluorescence ratio
CAAGATGGTC	0.987 ± 0.051
TACTATGTGG	1.013 ± 0.0014
TGCGGGTCGG	1.03 ± 0.031
ATCATTTAGT	0.982 ± 0.027
TAGGGGGGGT	1 ± 0.031
TCTTGCATGT	1.02 ± 0.028
ACCCAGCGCT	1.04 ± 0.023
ATATGTGTGT	0.995 ± 0.018
CGCGTAGGGC	1.04 ± 0.016
GCGCTTAAAT	1.03 ± 0.057
TACTTGTTTT	1 ± 0.033
CAGAGATTAG	0.996 ± 0.043
AGGGGAAAGC	1.01 ± 0.027
TTGGGTTAGG	0.979 ± 0.021
TTGGTCGGGA	1.15 ± 0.2
CTTGACATGT	0.976 ± 0.016
ATATTCTTCC	1.96 ± 0.18
TCCTGTTACA	1.03 ± 0.017
TTTTAAACCG	1.05 ± 0.17
AGTAGTAAAC	1.02 ± 0.016
TAGGGGGT	0.985 ± 0.027
ATCGCTTAGG	1 ± 0.012
AAGAAGGAGG	1.01 ± 0.029
AGAGAGTTTG	1.01 ± 0.02
GGGGCCAAGG	0.981 ± 0.017

Sequence	switch fluorescence ratio
TTGGTTAAGT	1.01 ± 0.046
GTTTAAGTTC	0.988 ± 0.017
AGTTAGGGTT	0.999 ± 0.039
GCCCATTTTT	0.978 ± 0.011
GGCTTTTGGA	0.982 ± 0.014
CGTAGAGGGC	0.986 ± 0.034
TACGAATATT	1.025 ± 0.0046
TAAGTGAAAG	0.986 ± 0.022
ACAAACGCTG	1.28 ± 0.0027
CGTGTATTCT	0.968 ± 0.034
AAGTGGGTTA	1.02 ± 0.032
AATGAGATCG	1.01 ± 0.016
GCATCGTCGG	1.04 ± 0.058
GCTTCAGGCC	1.02 ± 0.022
CTGGGAGGCA	0.9871 ± 0.0098
AATGTTAAGT	0.994 ± 0.022
TATAGAAAAT	1.03 ± 0.026
TCTGGGTTGG	1.013 ± 0.0074
ATGTGAGTTA	0.951 ± 0.039
GGGGTACCCA	0.993 ± 0.018
GTGGGGGTAG	0.99 ± 0.032
TAACAGGTTG	1.02 ± 0.019
GGTACCAGGC	1.019 ± 0.0021
GCCGATGCTG	0.978 ± 0.042
ATTTCAACGT	0.9879 ± 0.0034
